Test results from patent US20240317847A1 (Bayer, published 2024).

T1: human IL-11 (human, UniProt P20809 22-199)
T1 construct: Invigate, e.g. lot #C121021-19; biotinylated where coated in the ELISA; also called hIL-11; hIL11
T1 sequence: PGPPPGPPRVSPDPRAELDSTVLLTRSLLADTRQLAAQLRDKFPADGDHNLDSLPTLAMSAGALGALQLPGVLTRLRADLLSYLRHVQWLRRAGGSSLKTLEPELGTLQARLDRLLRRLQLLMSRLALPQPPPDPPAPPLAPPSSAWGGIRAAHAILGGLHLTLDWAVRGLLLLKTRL

T2: murine IL-11 (mouse, UniProt P47873 22-199)
T2 construct: Invigate, e.g. lot #C210819-09; biotinylated where coated in the ELISA; also called mIL-11; mIL11
T2 sequence: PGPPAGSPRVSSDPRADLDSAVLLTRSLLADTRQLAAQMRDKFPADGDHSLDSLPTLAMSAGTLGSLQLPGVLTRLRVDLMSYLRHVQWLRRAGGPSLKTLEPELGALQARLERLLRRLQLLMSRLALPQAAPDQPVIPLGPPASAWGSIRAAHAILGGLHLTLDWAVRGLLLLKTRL

T3: cynomolgus IL-11 (cynomolgus, UniProt P20808 22-199)
T3 sequence: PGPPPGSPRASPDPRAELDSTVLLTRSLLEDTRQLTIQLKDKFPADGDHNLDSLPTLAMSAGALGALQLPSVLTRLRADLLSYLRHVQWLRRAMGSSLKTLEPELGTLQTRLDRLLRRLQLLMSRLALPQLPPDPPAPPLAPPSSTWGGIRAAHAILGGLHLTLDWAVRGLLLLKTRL

T4: rat IL-11 (rat, UniProt Q99MF5 22-199)
T4 sequence: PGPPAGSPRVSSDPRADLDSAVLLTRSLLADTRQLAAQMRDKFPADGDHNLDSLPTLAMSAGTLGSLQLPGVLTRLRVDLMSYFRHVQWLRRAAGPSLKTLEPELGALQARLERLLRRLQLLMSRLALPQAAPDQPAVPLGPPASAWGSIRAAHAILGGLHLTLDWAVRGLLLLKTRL


Tests used:
human IL-11 [1] = biological target: T1, human IL-11; assay: Di-complex ELISA, competitor canine IL11RA-Fc on coated IL-11;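 note: signal drop relative to signal at lowest antibody concentration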
Experimental: (§1) The assay is performed using streptavidin coated microtiter plates (Greiner bio-one, #781997). In a first step, 10 nM biotinylated mouse IL-11 (Invigate, Germany, e.g., lot #C210819-09) or human IL-11 (Invigate, Germany, e.g., lot #C121021-19) is coated in 25 μl PBS on the plate at 4° C. overnight. Next day, the plate is washed three times with 50 μl PBST and then blocked with 50 μl SmartBlock (Candor, #113125) for one hour at room temperature (RT). After additional three washes with PBST, 25 μl of a mixture of the murine anti IL-11 antibody and recombinant canine IL11RA-Fc fusion protein (Sino Biological, #70078-D02H) in PBS-T, 10% Smartblock are added simultaneously to the plate and incubated for one hour at RT. […] After three additional washes with PBS-T, 25 μl anti-human-POD (Sigma, #A0170) in PBS-T, 10% Smartblock is added and incubated for 1 hour at RT. After a final three washes with PBS-T, 25 μl AmplexRed (Fisher Scientific, A12222), 1/1000 in PBS, 0,003% H₂O₂, is added as substrate and incubated for 15 min at RT in the dark. Then, the fluorescence is measured with a plate reader at 535/595 nm. Signals from dose responses were used to calculate IC50 values (GraphPad Prism). Efficacy was calculated as [(signal measured at lowest antibody concentration−signal measured at the highest antibody concentration)×100] divided by (signal measured at lowest antibody concentration−signal measured in the absence of IL11Ra).
(§2) IgG converted antibodies were subjected to the experimental assay procedure described in Example 18.

murine IL-11 [2] = biological target: T2, murine IL-11; assay: as above
Experimental: as §1, §2

cynomolgus IL-11 [3] = biological target: T3, cynomolgus IL-11; assay: cell-based or functional assay
human IL-11 [4] = biological target: T1, human IL-11; assay: cell-based or functional assay
rat IL-11 [5] = biological target: T4, rat IL-11; assay: cell-based or functional assay
murine IL-11 [6] = biological target: T2, murine IL-11; assay: cell-based or functional assay
cynomolgus IL-11 [7] = biological target: T3, cynomolgus IL-11; assay: SPR 37 C, antibody captured, IL-11 as analyte
Experimental: (§3) To assess the binding kinetics and affinity of anti-IL-11 antibodies as well as their species cross-reactivity profile, binding assays were conducted using surface plasmon resonance (SPR). Binding assays were performed on a Biacore T200 instrument or on a Biacore 8K+ instrument (Cytiva) at 37° C. using assay buffer HBS EP+, 300 mM NaCl, 1 mg/ml BSA, 0.05% NaN3. Antibodies were captured either via anti-human Fc IgGs (“Human antibody capture kit”, Order No. BR100839, Cytiva) or via anti-mouse Fc IgGs (“Mouse antibody capture kit, Order No. BR100383, Cytiva) covalently amine coupled to a Series S CM5 sensor chip (Cytiva) depending on the isotype. The amine coupling was carried out according to the manufacturer's instructions using 1-ethyl-3-(3-dimethylaminopropyl) carbodiimide hydrochloride (EDC), N-hydroxysuccinimide (NHS) and ethanolamine HCl, pH 8.5 (“Amine Coupling Kit” BR-1000-50, Cytiva.). Human, mouse, cynomolgus or rat IL-11 was used as analyte at several dilutions within the concentration range from 0.05-200 nM. For binding assays with only one concentration 200 nM IL-11 was used. The sensor surface was regenerated with glycine pH 1.7 after each antigen injection. Obtained sensorgrams were double referenced (subtraction of reference flow cell signal and buffer injection) and were fitted to a 1:1 Langmuir binding model to derive kinetic data using the Biacore T200 Evaluation software or the Biacore Insight software. If no value is reported, there was either no binding or very low binding and multiphasic binding behavior. Values below 1E-12 were considered to be below the dynamic range of the instrument and set to <1E-12.

human IL-11 [8] = biological target: T1, human IL-11; assay: SPR 37 C, antibody captured, IL-11 as analyte
Experimental: as §3

rat IL-11 [9] = biological target: T4, rat IL-11; assay: SPR 37 C, antibody captured, IL-11 as analyte
Experimental: as §3

murine IL-11 [10] = biological target: T2, murine IL-11; assay: SPR 37 C, antibody captured, IL-11 as analyte
Experimental: as §3

Row | Efficacy (%) (human IL-11 [1]) | Efficacy (%) (murine IL-11 [2]) | RGA Efficacy (%) (cynomolgus IL-11 [3]) | RGA Efficacy (%) (human IL-11 [4]) | RGA IC50 (human IL-11 [4]) | RGA Efficacy (%) (rat IL-11 [5]) | RGA IC50 (rat IL-11 [5]) | RGA Efficacy (%) (murine IL-11 [6]) | RGA IC50 (murine IL-11 [6]) | binding result (cynomolgus IL-11 [7]) | Kd (human IL-11 [8]) | Kd (rat IL-11 [9]) | Kd (murine IL-11 [10]) | Kd (cynomolgus IL-11 [7]) | Binder
1 | 0.3% | 1.1% | 58.6% | 99.7% | 1700 pM | 101% | 1300 pM | 100% | 910 pM | no binding (tested: IL-11 up to 200 nM) | 90 pM | 290 pM | 110 pM | – | TPP-29520 (antibody, mouse IgG1, mIgG1, Lambda) heavy: QVQLVESGGGVVQPGRSLRLSCAASGFTFSHYDMHWVRQAPGKGLEWVAVISYSGSVKFYADSVKGRFTISRDNSKNTLYLQMNSLRAEDTAVYYCARTPGSHFDYWGQGTLVTVSSAKTTPPSVYPLAPGSAAQTNSMVTLGCLVKGYFPEPVTVTWNSGSLSSGVHTFPAVLQSDLYTLSSSVTVPSSTWPSETVTCNVAHPASSTKVDKKIVPRDCGCKPCICTVPEVSSVFIFPPKPKDVLTITLTPKVTCVVVDISKDDPEVQFSWFVDDVEVHTAQTQPREEQFNSTFRSVSELPIMHQDWLNGKEFKCRVNSAAFPAPIEKTISKTKGRPKAPQVYTIPPPKEQMAKDKVSLTCMITDFFPEDITVEWQWNGQPAENYKNTQPIMDTDGSYFVYSKLNVQKSNWEAGNTFTCSVLHEGLHNHHTEKSLSHSPGK light: QSVLTQPPSASGTPGQRVTISCSGSSSNIGSNYVNWYQQLPGTAPKLLIYYDDLRPSGVPDRFSGSKSGTSASLAISGLRSEDEADYYCSAWDDSLSGVVFGGGTKLTVLGQPKSSPSVTLFPPSSEELETNKATLVCTITDFYPGVVTVDWKVDGTPVTQGMETTQPSKQSNNKYMASSYLTLTARAWERHSSYSCQVTHEGHTVEKSLSRADCS
2 | 0% | 3.6% | 52% | 98.6% | 1600 pM | 101% | 1600 pM | 101% | 780 pM | – | 34 pM | 340 pM | 29 pM | 24000 pM | TPP-29522 (antibody, mouse IgG1, mIgG1, Lambda) heavy: QVQLVESGGGVVQPGRSLRLSCAASGFTFSHYDMHWVRQAPGKGLEWVAVISYEGSNKFYADSVKGRFTISRDNSKNTLYLQMNSLRAEDTAVYYCARTPGFHFDYWGQGTLVTVSSAKTTPPSVYPLAPGSAAQTNSMVTLGCLVKGYFPEPVTVTWNSGSLSSGVHTFPAVLQSDLYTLSSSVTVPSSTWPSETVTCNVAHPASSTKVDKKIVPRDCGCKPCICTVPEVSSVFIFPPKPKDVLTITLTPKVTCVVVDISKDDPEVQFSWFVDDVEVHTAQTQPREEQFNSTFRSVSELPIMHQDWLNGKEFKCRVNSAAFPAPIEKTISKTKGRPKAPQVYTIPPPKEQMAKDKVSLTCMITDFFPEDITVEWQWNGQPAENYKNTQPIMDTDGSYFVYSKLNVQKSNWEAGNTFTCSVLHEGLHNHHTEKSLSHSPGK light: QSVLTQPPSASGTPGQRVTISCSGSSSNIGSNYVNWYQQLPGTAPKLLIYYDDLRPSGVPDRFSGSKSGTSASLAISGLRSEDEADYYCSAWDDSLSGVVFGGGTKLTVLGQPKSSPSVTLFPPSSEELETNKATLVCTITDFYPGVVTVDWKVDGTPVTQGMETTQPSKQSNNKYMASSYLTLTARAWERHSSYSCQVTHEGHTVEKSLSRADCS
3 | 1.7% | 12.1% | 60% | 99.2% | 1900 pM | 98.9% | 1800 pM | 103% | 760 pM | no binding (tested: IL-11 up to 200 nM) | 180 pM | 2100 pM | 98 pM | – | TPP-29521 (antibody, mouse IgG1, mIgG1, Lambda) heavy: QVQLVESGGGVVQPGRSLRLSCAASGFTFSHYDMHWVRQAPGKGLEWVAVISYEGSNKFYADSVKGRFTISRDNSKNTLYLQMNSLRAEDTAVYYCARTPGFHFDYWGQGTLVTVSSAKTTPPSVYPLAPGSAAQTNSMVTLGCLVKGYFPEPVTVTWNSGSLSSGVHTFPAVLQSDLYTLSSSVTVPSSTWPSETVTCNVAHPASSTKVDKKIVPRDCGCKPCICTVPEVSSVFIFPPKPKDVLTITLTPKVTCVVVDISKDDPEVQFSWFVDDVEVHTAQTQPREEQFNSTFRSVSELPIMHQDWLNGKEFKCRVNSAAFPAPIEKTISKTKGRPKAPQVYTIPPPKEQMAKDKVSLTCMITDFFPEDITVEWQWNGQPAENYKNTQPIMDTDGSYFVYSKLNVQKSNWEAGNTFTCSVLHEGLHNHHTEKSLSHSPGK light: QSVLTQPPSASGTPGQRVTISCSGSSSNIGSNYVSWYQQLPGTAPKLLIYYDDLRPSGVPDRFSGSKSGTSASLAISGLRSEDEADYYCSAWDDSLSGVVFGGGTKLTVLGQPKSSPSVTLFPPSSEELETNKATLVCTITDFYPGVVTVDWKVDGTPVTQGMETTQPSKQSNNKYMASSYLTLTARAWERHSSYSCQVTHEGHTVEKSLSRADCS
